The values that follow come from the nanobody polyreactivity screen of Harvey et al. (2022).

The data set in a line: yeast display, Sf9 membrane polyspecificity reagent, FACS + sequencing; frameworks hold sequencing errors. The method, boiled down:
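Genes from sorted yeast were amplified by colony PCR, read by MiSeq 2 × 250 sequencing and filtered on CDR length. These cells carried a synthetic nanobody library in Saccharomyces cerevisiae BJ5465 and were sorted by FACS into low and high (top ~1%) gates on anti-HA and streptavidin fluorescence. Polyreactivity is labelled according to the gate of origin.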
“QVQLVESGGGLVQAGGSLRLSCAASGIIFYGYAMGRYRQAPGKERELVAAITSSGRTYYADSVKGRFTISRDNAKNTVYLQMNSLKPEDTAVYFCNVLLQRVYGTAPSFDYWGQGTQVTVSS”: the “polyreactivity (PSR sort gate)” value is on record as “high polyreactivity”. Under “QVQLVESGGGLVQAGGSLRLSCAASGIIFYGYAMGWYRQAPGKERELVAAISRSGGSTYYADSVKGRFTISRDNAKNTVYLQMNSLKPEDTAVYYCAAVRIRPLRYYYWGQGTQVTVSS” stands “high polyreactivity”; under “QVQLVESGGGLVQAGGSLRLSCAASGIIFYGYAMGWYRQAPGKERELVAAITYSGGSTYYADSVKGRFTISRDNAKNTVYLQMNSLKPEDTEVYYCAAYDAYSPYQALYDYWGQGTQVTVSS”, “low polyreactivity”. To “QVQLVESGGGLVQAGGSLRLSCAASGIIFYLNAMGWYRQAPGKERELVAAISSSGGRTNYADSVKGRFTISRDNAKNSVYLQMNSLKPEDTAVYFCAAVITFYRYPPGETYYYWGQGTQVTVSS” belongs “high polyreactivity”; to “QVQLVESGGGLVQAGGSLRLSCAASGIIFYLYAMGWYRQAPGKERELVAPITTGGRTNYADSVKGRFTISRDNAKNTVYLQMNSLKPEDTAVYYCAATHRGQGGYYWGQGTQVTVSS”, “low polyreactivity”; to “QVQLVESGGGLVQAGGSLRLSCAASGIIFYRNTMGWYRQAPGKERELVASISRGGSTNYADSVKGRFTISRDNAKNTVYLQMNSLKPEDTAVYYCAAYTYIPLSYYRGYTMDYWGQGTQVTVSS”, “low polyreactivity”. Consider “QVQLVESGGGLVQAGGSLRLSCAASGIIFYSSAMGWYRTAPGKERELVAAISWGGRTYYADSVKGRFTISRDNAKNTVYLQMNSLKPEDTAVYYCLNGRYWRRYDYWGQGTQVTVSS”, for which the “polyreactivity (PSR sort gate)” value was “high polyreactivity”.

With “QVQLVESGGGLVQAGGSLRLSCAASGIIFYSYAMGWYRQAPGKERELVATISFSGDNTYYADSVKGRFTISRDNAKNTVYLQMNSLKPEDTAVYYCAAASTYGGYYYSVSFEYWGQGTQVTVSS”, the “polyreactivity (PSR sort gate)” value is “low polyreactivity”. Under “QVQLVESGGGLVQAGGSLRLSCAASGIIFYYSAMGCYRQAPGKERELVAAISWSGGTTIYADSVKGRFTISLDNAKSTVYLQMNSLKPKDTAVYYCAAAFSPGWWSRHTYDYDYWGQGTQLTVSS” stands “high polyreactivity”. Under “QVQLVESGGGLVQAGGSLRLSCAASGIIFYYYAMGGYRQAPGKEREFVAGIRWSSGSTYYADSVKGRFTISRDNAKNTVYLQMNSLKPEDTAVYYCAADSSGEYPGGYWGQGTQVTVSS” stands “low polyreactivity”; under “QVQLVESGGGLVQAGGSLRLSCAASGIIFYYYAMGWYRQAPGKERELVAAISTSGGRTYYADSVKGRFTISRDNAKNTVYLQMNSLKPEDTAVYYCNTKVISRTSERRGNGFTRYDYWGQGTQVTVSS”, “low polyreactivity”.

Consider “QVQLVESGGGLVQAGGSLRLSCAASGIIFYYYAMGWYRQAPGKERELVAGISYSGGSTYADSVKGRFTISRDNAKNTVYLQMNSLKPEDTAVYYCASDYDYGGHWYDYWGQGTQVTVSS”, for which the “polyreactivity (PSR sort gate)” value is “low polyreactivity”.

Turning to “QVQLVESGGGLVQAGGSLRLSCAASGIIFYYYGMGWYSQAPGKERELVAAISTGGSTNYADSVKGRFTISRDNAKNTVYLQMNRLKPEDTAVYYCAVTYWWYYGYDYWGQGTQVTVSS”, the “polyreactivity (PSR sort gate)” value was “low polyreactivity”. To “QVQLVESGGGLVQAGGSLRLSCAASGIIIDYNAMGWYRQAPGKERELVAAISSRGGSTYYADSVKGRFTISRDNAKNPVYFQMNSLKPEDTAVYYCAGRPDHQRYDYWGQGSQVTVSS” belongs “low polyreactivity”. To “QVQLVESGGGLVQAGGSLRLSCAASGIIIDYYTMGWYRQAPGQERELVAAINKSGGSTYADSVKGRFTISRDNAKNTVYLQMNSLKPEDTAVYYCAAEVDYSYWPEYARKYYYWGQGTQVTVSS” belongs “low polyreactivity”.

As for “QVQLVESGGGLVQAGGSLRLSCAASGIIIGGYAMGWYRQAPGKERELVADITWSGGSTTYADSVKGRFTISRDNAKNTVYLQMNSLKPEDTAVYYCAAEDYYIYREPYDYWGQGTQVTVSS”, the “polyreactivity (PSR sort gate)” value is listed as “low polyreactivity”. Take “QVQLVESGGGLVQAGGSLRLSCAASGIIIRKYAMGWYRQAPGKERELVAAITTRGSRTYYADSVKGRFTISRDNAKNTVYLQMNSLKPEDTAVYYCAGDRYTVRMDYWGQGTQVTVSS”: the “polyreactivity (PSR sort gate)” value is “high polyreactivity”. Under “QVQLVESGGGLVQAGGSLRLSCAASGIIIRYYAMGWYRQAPGKERELVADITTGGTTYYADSVKGRFTISRDNAKNTVYLQMNCLKPEDTAVYYCAAYYFPTYSKTYIYPFDYWGQGTQVTVSS” stands “low polyreactivity”; under “QVQLVESGGGLVQAGGSLRLSCAASGIIIRYYAMGWYRQAPGKERELVADITTGGTTYYADSVKGRFTISRDNAKNTVYLQMNSLKPEDTAVYYCAAYYFPTYSKTYIYPFDYWGQGTQVTVSS”, “low polyreactivity”. As to “QVQLVESGGGLVQAGGSLRLSCAASGIIISRYAMGWYRQAPGKERELVADISIGDSTNYADSVKGRFTISRDNAKNTVYLQMNSLKPEDTAVYYCAAGDYFYSYYYWGQGTQVTVSS”, the “polyreactivity (PSR sort gate)” value is recorded as “low polyreactivity”. For “QVQLVESGGGLVQAGGSLRLSCAASGIIIVGNSMGWYRQAPGKQRELVASINSGGSTYYADSVKGRFTISRDNAKNTVYLQMNSLKPEDTAVYDCAVEEDRYYYDDYDYCGQGTQVTVSS”, the “polyreactivity (PSR sort gate)” value is reported as “low polyreactivity”. To “QVQLVESGGGLVQAGGSLRLSCAASGIILDHYAMGWYRQAPGKERELVAAISSGTRTNYADSVKGRFTISRDNAKNTVYLQMNSLKPEDTAVYYCAATIYRRYRSKSSITSYWGQGSQVTVSS” belongs “high polyreactivity”; to “QVQLVESGGGLVQAGGSLRLSCAASGIILKYYAMGWNRQAPVKERELVAAITSSGDSTYYADSVKGRFTISRDNAKNTVYLQMNSLKPDDTAVYYCAALRFRGGQSTGRDRMDYWGQGTQVTVSS”, “high polyreactivity”. Under “QVQLVESGGGLVQAGGSLRLSCAASGIILPQNAMGWYRQAPGKERELVAAISKSGGRTYYADSVKGRFTISRDNAKNTVYLQMNSLKPEDTAVYYCAAVVRRAPEFDYWGQGTQVTVSS” stands “high polyreactivity”; under “QVQLVESGGGLVQAGGSLRLSCAASGIILSAYAMGWYRQAPGKERELVARISRSGGRTYYADSVKGRFTISRDNAKNTVYLQMNSLKPEDTAVYYCAADYTYGFGLYFGYGYWRQGTQVTVSS”, “high polyreactivity”; under “QVQLVESGGGLVQAGGSLRLSCAASGIILSENAKGWYRQAPGKERELVAAITSSGSTNYADSVKGRLTISRDNAKNTVYLQMNSLKPVDTAVYYCATQNLYVSWYYAWYGYGYWGQGTQVNVSS”, “low polyreactivity”.

“QVQLVESGGGLVQAGGSLRLSCAASGIILSPYAMGWYRQAPGKERELVAAISRSGGSTYYADSVKGRFTISRDNAKNTVYLQMNSLKPEDTAVYYCAAEYYGYWEYDYWGQGTQVTVSS”: the “polyreactivity (PSR sort gate)” value was “high polyreactivity”.

“QVQLVESGGGLVQAGGSLRLSCAASGIILTPNAMGWYRQAPGTERELVAAIDWRDGITYYADSVKGRFTISRDNAKNTVYLQMNSLKPEDTAVYYCAATFSRGYDYWGQGTQVTVSS”: the “polyreactivity (PSR sort gate)” value was “high polyreactivity”. On to “QVQLVESGGGLVQAGGSLRLSCAASGIILTYYAMGWYRPAAGHERELVARISSSGGRTYYADSVKARFTISRDNAKNTLYLQMNSQKPEETAVYYCAAAIVSSGRNDYWGHGTQVTVSS”, for which the “polyreactivity (PSR sort gate)” value is “high polyreactivity”. To “QVQLVESGGGLVQAGGSLRLSCAASGIILYPYAMGWYRQAPGKERELVAAISWSGGSTYYADSVKGRFTISRDNAKNTVYLQMNSLKPEDTAVYYCNARYYGPSWNSYDYWGQGTQVTVSS” belongs “high polyreactivity”.
